Data taken from publication PMC12858062 (2026).

B1: C3-Fc (anti-Pfs48/45 nanobody C3 fused to hinge and Fc of human IgG1) (Fc fusion)
chain: QVQLQESGGGSVQPGGSLRLSCAASGFTFSSYWMYWVRQAPEKGLEWVSVINPGGRITIYTDSVKGRFAVSRDNAKNTVYLQLNSLKPEDTAVYYCAASRTYSNSYSPSDYDYWGQGTQVTVSS
B2: B2-Fc (anti-Pfs48/45 nanobody B2 fused to hinge and Fc of human IgG1) (Fc fusion)
chain: QVQLQESGGGLVQAGGSLRLSCAASGRTFSKYAMAWFRQAPGKEREFVAAISGAGGATVHAAPVKGRFTISRDNAKNMGYLQMNSLKPEDTAVYYCAQTGSTGWPAGRTYTYDYWGQGTQVTVSS
B3: A4-Fc (anti-Pfs48/45 nanobody A4 fused to hinge and Fc of human IgG1) (Fc fusion)
chain: QVQLQESGGGLVQPGGSLRLSCAASGFTFSSYWMYWVRETPGKGLEWVSVINPGGRITIYTDSVKGRFTVSRDNAKNTVYLQMNSLKPEDTAVYFCAADLEYRAQLYAYWGQGTQVTVSS
B4: Anti-Pfs48/45 monoclonal antibody TB31F (humanised version of 85RF45.1) (antibody, V domains shown)
VH: EVQLVQSGGGLVQPGGSLRLSCAASGFTFNNYWMSWVRQAPGKGLEWVSSISNIGGTIYYPDSVKGRFTISRDNSKNTLYLQMNSLRAEDTAVYYCTRDLRMSDYFDYWGQGTMVTVSS
VL: NFMLTQPHSVSESPGKTVTISCTRSTGNIGSNYVSWYQQRPGSSPTTVIYRDDQRPSGVPDRFSGSIDRSSNSASLTISGLKTEDEADYYCHSYSTGMYIFGGGTKLTVL

target: Stabilised Pfs48/45 D3 (D3.mAgE1), PNGase F-deglycosylated, with C-terminal hexa-histidine tag and AviTag (P. falciparum); assay: BLI

First: B1
Second: B2
The koff of the first is 2.2-fold higher: 0.0106 s⁻¹ for the first, 0.00476 s⁻¹ for the second.

First: B3
Second: B4
The koff of the first is 3.6-fold higher: 0.00851 s⁻¹ for the first, 0.00239 s⁻¹ for the second.
